Measurements published in patent publication US20250163164A1 (LANOVA MEDICINES DEVELOPMENT, published 2025).

T1: human interleukin 13 receptor subunit alpha 2 (IL-13RA2) (human, UniProt Q14627 27-380)
T1 construct: whole, on cells; also called IL-13Rα2; CD213A2
T1 sequence (looked up): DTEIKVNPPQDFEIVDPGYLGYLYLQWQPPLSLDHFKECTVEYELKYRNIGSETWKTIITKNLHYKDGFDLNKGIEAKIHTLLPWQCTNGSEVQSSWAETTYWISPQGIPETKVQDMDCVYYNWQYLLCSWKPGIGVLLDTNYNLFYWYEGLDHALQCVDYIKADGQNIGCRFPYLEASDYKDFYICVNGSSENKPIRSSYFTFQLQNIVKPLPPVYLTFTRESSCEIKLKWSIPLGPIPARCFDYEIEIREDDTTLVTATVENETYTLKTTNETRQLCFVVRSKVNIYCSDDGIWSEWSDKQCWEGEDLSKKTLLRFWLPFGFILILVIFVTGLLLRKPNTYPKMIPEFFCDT


Molecular target: T1, human interleukin 13 receptor subunit …
Test: FACS on A375 cells
Method: A375 cells that endogenously expressed IL-13RA2, were harvested from flasks. 100 μl of 1×10⁶ cells/ml of cells were incubated with primary humanized antibodies in 4-fold serial dilutions starting from 200 nM to 0.003 nM for 30 minutes on ice. After being washed with 200 μl of FACS buffer twice, cells were incubated with secondary antibody for 30 minutes on ice. Cells were washed with 200 μl of FACS buffer twice and analyzed by FACS.

Binder	EC50 [nM]	Top (MFI)
57F8H3F1 H2L2 hIgG1 (antibody, V domains shown, humanized, hIgG1) VH: QVQLVQSGAEVVKPGASVKVSCKASGYTFTNYWMNWVRQAPGQGLEWIGRIDAYETETHYNQKFRDRVTMTVDTSTSTVYMELSSLRSEDTAVYYCARGYGHYYGVDYWGQGTLVTVSS VL: DIQMTQSPSSLSASVGDRVTITCRASENVGNFGISFVNWFQQKPGKAPKLLIYAASNLGSGDPSRFSGSGSGTDFTLTISSLQPEDFATYFCQQSKGVPWTFGQGTKVEIK	0.89	7090
57F8H3F1 H1L1 hIgG1 (antibody, V domains shown, humanized, hIgG1) VH: QVQLVQSGAEVKKPGASVKVSCKASGYTFTNYWMNWVRQAPGQGLEWMGRIDAYETETHYNQKFRDRVTMTRDTSTSTVYMELSSLRSEDTAVYYCARGYGHYYGVDYWGQGTLVTVSS VL: DIQMTQSPSSLSASVGDRVTITCRASENVGNFGISFVNWYQQKPGKAPKLLIYAASNLGSGVPSRFSGSGSGTDFTLTISSLQPEDFATYYCQQSKGVPWTFGQGTKVEIK	0.63	7020
57F8H3F1 H1L2 hIgG1 (antibody, V domains shown, humanized, hIgG1) VH: QVQLVQSGAEVKKPGASVKVSCKASGYTFTNYWMNWVRQAPGQGLEWMGRIDAYETETHYNQKFRDRVTMTRDTSTSTVYMELSSLRSEDTAVYYCARGYGHYYGVDYWGQGTLVTVSS VL: DIQMTQSPSSLSASVGDRVTITCRASENVGNFGISFVNWFQQKPGKAPKLLIYAASNLGSGDPSRFSGSGSGTDFTLTISSLQPEDFATYFCQQSKGVPWTFGQGTKVEIK	0.78	7510
61H8C1 H2L2 hIgG1 (antibody, V domains shown, humanized, hIgG1) VH: QVQLVQSGAEVAKPGASVKVSCKASGYTFTSYWTQWIRQAPGQGLEGMGAIYPGDDDTSYNQKFKGRVTMTADTSTSTVYMELSSLRSEDTAVYYCARGATLLRPFPYWGQGTLVTVSS VL: DIQMTQSPSSLSTSVGDRVTITCKASQDVSTAVAWYQQKPGKSPKLLIYSASYRYTGVPSRFSGSGSGTDFTLTISSLQPEDFATYSCQQHYSIPPTFGQGTKLEIK	0.15	22400
61H8C1 H1L4 hIgG1 (antibody, V domains shown, humanized, hIgG1) VH: QVQLVQSGAEVKKPGASVKVSCKASGYTFTSYWTQWVRQAPGQGLEWMGAIYPGDDDTSYNQKFKGRVTMTRDTSTSTVYMELSSLRSEDTAVYYCARGATLLRPFPYWGQGTLVTVSS VL: DIVMTQSPSSLSTSVGDRVTITCKASQDVSTAVAWYQQKPGKSPKLLIYSASYRYTGVPDRFTGSGSGTDFTFTISSVQPEDFATYSCQQHYSIPPTFGGGTKLEIK	0.17	19800
61H8C1 H1L1 hIgG1 (antibody, V domains shown, humanized, hIgG1) VH: QVQLVQSGAEVKKPGASVKVSCKASGYTFTSYWTQWVRQAPGQGLEWMGAIYPGDDDTSYNQKFKGRVTMTRDTSTSTVYMELSSLRSEDTAVYYCARGATLLRPFPYWGQGTLVTVSS VL: DIQMTQSPSSLSASVGDRVTITCKASQDVSTAVAWYQQKPGKAPKLLIYSASYRYTGVPSRFSGSGSGTDFTLTISSLQPEDFATYYCQQHYSIPPTFGQGTKLEIK	0.14	20300
61H8C1 H1L2 hIgG1 (antibody, V domains shown, humanized, hIgG1) VH: QVQLVQSGAEVKKPGASVKVSCKASGYTFTSYWTQWVRQAPGQGLEWMGAIYPGDDDTSYNQKFKGRVTMTRDTSTSTVYMELSSLRSEDTAVYYCARGATLLRPFPYWGQGTLVTVSS VL: DIQMTQSPSSLSTSVGDRVTITCKASQDVSTAVAWYQQKPGKSPKLLIYSASYRYTGVPSRFSGSGSGTDFTLTISSLQPEDFATYSCQQHYSIPPTFGQGTKLEIK	0.15	19600
61H8C1 H1L3 hIgG1 (antibody, V domains shown, humanized, hIgG1) VH: QVQLVQSGAEVKKPGASVKVSCKASGYTFTSYWTQWVRQAPGQGLEWMGAIYPGDDDTSYNQKFKGRVTMTRDTSTSTVYMELSSLRSEDTAVYYCARGATLLRPFPYWGQGTLVTVSS VL: DIQMTQSPSSLSTSVGDRVTITCKASQDVSTAVAWYQQKPGKSPKLLIYSASYRYTGVPDRFSGSGSGTDFTFTISSLQPEDFATYSCQQHYSIPPTFGGGTKLEIK	0.2	20000
61H8C1 H2L1 hIgG1 (antibody, V domains shown, humanized, hIgG1) VH: QVQLVQSGAEVAKPGASVKVSCKASGYTFTSYWTQWIRQAPGQGLEGMGAIYPGDDDTSYNQKFKGRVTMTADTSTSTVYMELSSLRSEDTAVYYCARGATLLRPFPYWGQGTLVTVSS VL: DIQMTQSPSSLSASVGDRVTITCKASQDVSTAVAWYQQKPGKAPKLLIYSASYRYTGVPSRFSGSGSGTDFTLTISSLQPEDFATYYCQQHYSIPPTFGQGTKLEIK	0.16	22400

The remaining lines, values ahead:

EC50 [nM]	Top (MFI)	Binder
0.19	21600	61H8C1 H4L4 hIgG1 (antibody, V domains shown, humanized, hIgG1) VH: QVQLVQSGAEVAKPGASVKLSCKASGYTFTSYWTQWIKQAPGQGLEGIGAIYPGDDDTSYNQKFKGKATLTADKSTSTAYMQLSSLRSEDTAVYYCARGATLLRPFPYWGQGTLVTVSS VL: DIVMTQSPSSLSTSVGDRVTITCKASQDVSTAVAWYQQKPGKSPKLLIYSASYRYTGVPDRFTGSGSGTDFTFTISSVQPEDFATYSCQQHYSIPPTFGGGTKLEIK
0.17	22300	61H8C1 H3L2 hIgG1 (antibody, V domains shown, humanized, hIgG1) VH: QVQLVQSGAEVAKPGASVKVSCKASGYTFTSYWTQWIRQAPGQGLEGIGAIYPGDDDTSYNQKFKGRATLTADKSTSTVYMQLSSLRSEDTAVYYCARGATLLRPFPYWGQGTLVTVSS VL: DIQMTQSPSSLSTSVGDRVTITCKASQDVSTAVAWYQQKPGKSPKLLIYSASYRYTGVPSRFSGSGSGTDFTLTISSLQPEDFATYSCQQHYSIPPTFGQGTKLEIK
0.15	20100	61H8C1 H3L3 hIgG1 (antibody, V domains shown, humanized, hIgG1) VH: QVQLVQSGAEVAKPGASVKVSCKASGYTFTSYWTQWIRQAPGQGLEGIGAIYPGDDDTSYNQKFKGRATLTADKSTSTVYMQLSSLRSEDTAVYYCARGATLLRPFPYWGQGTLVTVSS VL: DIQMTQSPSSLSTSVGDRVTITCKASQDVSTAVAWYQQKPGKSPKLLIYSASYRYTGVPDRFSGSGSGTDFTFTISSLQPEDFATYSCQQHYSIPPTFGGGTKLEIK
0.15	20600	61H8C1 H3L1 hIgG1 (antibody, V domains shown, humanized, hIgG1) VH: QVQLVQSGAEVAKPGASVKVSCKASGYTFTSYWTQWIRQAPGQGLEGIGAIYPGDDDTSYNQKFKGRATLTADKSTSTVYMQLSSLRSEDTAVYYCARGATLLRPFPYWGQGTLVTVSS VL: DIQMTQSPSSLSASVGDRVTITCKASQDVSTAVAWYQQKPGKAPKLLIYSASYRYTGVPSRFSGSGSGTDFTLTISSLQPEDFATYYCQQHYSIPPTFGQGTKLEIK
0.17	22200	61H8C1 H4L1 hIgG1 (antibody, V domains shown, humanized, hIgG1) VH: QVQLVQSGAEVAKPGASVKLSCKASGYTFTSYWTQWIKQAPGQGLEGIGAIYPGDDDTSYNQKFKGKATLTADKSTSTAYMQLSSLRSEDTAVYYCARGATLLRPFPYWGQGTLVTVSS VL: DIQMTQSPSSLSASVGDRVTITCKASQDVSTAVAWYQQKPGKAPKLLIYSASYRYTGVPSRFSGSGSGTDFTLTISSLQPEDFATYYCQQHYSIPPTFGQGTKLEIK
0.18	21900	61H8C1 H2L4 hIgG1 (antibody, V domains shown, humanized, hIgG1) VH: QVQLVQSGAEVAKPGASVKVSCKASGYTFTSYWTQWIRQAPGQGLEGMGAIYPGDDDTSYNQKFKGRVTMTADTSTSTVYMELSSLRSEDTAVYYCARGATLLRPFPYWGQGTLVTVSS VL: DIVMTQSPSSLSTSVGDRVTITCKASQDVSTAVAWYQQKPGKSPKLLIYSASYRYTGVPDRFTGSGSGTDFTFTISSVQPEDFATYSCQQHYSIPPTFGGGTKLEIK
0.2	22000	61H8C1 H3L4 hIgG1 (antibody, V domains shown, humanized, hIgG1) VH: QVQLVQSGAEVAKPGASVKVSCKASGYTFTSYWTQWIRQAPGQGLEGIGAIYPGDDDTSYNQKFKGRATLTADKSTSTVYMQLSSLRSEDTAVYYCARGATLLRPFPYWGQGTLVTVSS VL: DIVMTQSPSSLSTSVGDRVTITCKASQDVSTAVAWYQQKPGKSPKLLIYSASYRYTGVPDRFTGSGSGTDFTFTISSVQPEDFATYSCQQHYSIPPTFGGGTKLEIK
0.14	21100	61H8C1 H4L2 hIgG1 (antibody, V domains shown, humanized, hIgG1) VH: QVQLVQSGAEVAKPGASVKLSCKASGYTFTSYWTQWIKQAPGQGLEGIGAIYPGDDDTSYNQKFKGKATLTADKSTSTAYMQLSSLRSEDTAVYYCARGATLLRPFPYWGQGTLVTVSS VL: DIQMTQSPSSLSTSVGDRVTITCKASQDVSTAVAWYQQKPGKSPKLLIYSASYRYTGVPSRFSGSGSGTDFTLTISSLQPEDFATYSCQQHYSIPPTFGQGTKLEIK
0.19	22100	61H8C1 H2L3 hIgG1 (antibody, V domains shown, humanized, hIgG1) VH: QVQLVQSGAEVAKPGASVKVSCKASGYTFTSYWTQWIRQAPGQGLEGMGAIYPGDDDTSYNQKFKGRVTMTADTSTSTVYMELSSLRSEDTAVYYCARGATLLRPFPYWGQGTLVTVSS VL: DIQMTQSPSSLSTSVGDRVTITCKASQDVSTAVAWYQQKPGKSPKLLIYSASYRYTGVPDRFSGSGSGTDFTFTISSLQPEDFATYSCQQHYSIPPTFGGGTKLEIK
0.18	20800	61H8C1 H4L3 hIgG1 (antibody, V domains shown, humanized, hIgG1) VH: QVQLVQSGAEVAKPGASVKLSCKASGYTFTSYWTQWIKQAPGQGLEGIGAIYPGDDDTSYNQKFKGKATLTADKSTSTAYMQLSSLRSEDTAVYYCARGATLLRPFPYWGQGTLVTVSS VL: DIQMTQSPSSLSTSVGDRVTITCKASQDVSTAVAWYQQKPGKSPKLLIYSASYRYTGVPDRFSGSGSGTDFTFTISSLQPEDFATYSCQQHYSIPPTFGGGTKLEIK
